Test results taken from publication PMC7972335.
Where “and” joins values, the source holds several entries; their conditions need not be identical. Identical values can stand only once.

Key:
[1] = molecular target: trimeric extracellular domain of the S protein of SARS-CoV-2 (SARS-CoV-2) (UniProt P0DTC2); assay: cryo-EM structure; S protein incubated with PD of ACE2; three conformations
[2] = molecular target: trypsin-digested S protein (extracellular domain of the SARS-CoV-2 S protein cleaved at S1/S2) (SARS-CoV-2); assay: cryo-EM structure

## peptidase domain (PD) of ACE2 (domain or fragment)
[1]
  percent of particles in conformation 2 (one PD bound): 24.4%
  percent of particles in conformation 3 (one PD bound): 67.7%
[2]
  percent of particles in conformation 1 (one PD bound): 9.5%
  percent of particles in conformation 2 (two PD bound): 84.5%
  percent of particles in conformation 3 (two PD bound): 6%
  stoichiometry N (PD per S(p) trimer): 1 and 2
